Publication PMC8216272

molecular target: T1, myoglobin (UniProt P02144 2-154); experiment: aptamer blotting
T1 sequence: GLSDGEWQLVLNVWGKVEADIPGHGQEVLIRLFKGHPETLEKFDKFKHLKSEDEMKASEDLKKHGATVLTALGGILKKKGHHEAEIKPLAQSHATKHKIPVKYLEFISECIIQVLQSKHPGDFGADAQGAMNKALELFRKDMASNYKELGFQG

Row | Binder | binding result
1 | GGGAAGGGTTGGGAGGG (structured_DNA) [PEA1-16] | binds
2 | GGGTGGGTTGGGAGGG (structured_DNA) [PEA1-20] | binds
3 | GGGTGGGAGGGAGGG (structured_DNA) [PEA1-13] | binds
4 | GGGTGGGAAGGGTTGGG (structured_DNA) [PEA1-06] | binds
5 | GGGCCGGGTTGGGTGTAGAGTGGG (structured_DNA) [PEA1-02] | binds
6 | GGGCCGGGAGGGAGGG (structured_DNA) [PEA1-19] | binds
7 | GGGTGGGTTTCTTGGGAGGG (structured_DNA) [PEA1-11] | binds

molecular target: T1, myoglobin; experiment: aptamer blotting; remark: another data set of the same source

Row | Binder | binding result
8 | GGGAAGGAGGGAGGAAGGGAGGGAGGG (structured_DNA) [aFGF-PQS20] | binds
9 | GGGTGGGGGTGGGTTTCTTGGGGTGTAAAGTGGG (structured_DNA) [HER2-PQS3] | binds
10 | GGGATAGGGTTGGGCACTCACAGCTGAATGGG (structured_DNA) [PSA-PQS2] | binds
11 | GGGCCGGGAGGGTGCAGGG (structured_DNA) [Annexin II-PQS] | binds

molecular target: T1, myoglobin; experiment: SPR

Row | Binder | Kd
12 | GGGCGGGTTGGGCTGGG (structured_DNA) [PEA3-01] | 5.8 nM

molecular target: T1, myoglobin; experiment: aptamer blotting; remark: another data set of the same source

Row | Binder | binding result
13 | N24-01 (structured_DNA) DNA: ACTAGAACTGATCTACAATTTAGGCCGGGTGTTGGGTGGGTAGGGTTTTCTACATCTCAGCATTCT | binds
14 | N24-06 (structured_DNA) DNA: ACTAGAACTGATCTACAATTTGGGGGGGTTTTGGGGGGGTTGTTGTTTTCTACATCTCAGCATTCT | binds
15 | N24-07 (with primer sites) (structured_DNA) DNA: ACTAGAACTGATCTACAATTTGGGTGGGTTTTCTTTGGGTTGGGCTTTTCTACATCTCAGCATTCT | binds
16 | N24-04 (structured_DNA) DNA: ACTAGAACTGATCTACAATTTGGGGGGGTTTTCTGGGGGGGTTTTTTTTCTACATCTCAGCATTCT | binds
17 | N24-03 (structured_DNA) DNA: ACTAGAACTGATCTACAATTTGGGTTGGGGGGGTTTTGGGTTTTTTTTTCTACATCTCAGCATTCT | binds

molecular target: T1, myoglobin; experiment: absorption spectroscopy

Row | Binder | binding result
18 | GGGTGGGTTTTCTTTGGGTTGGGC (structured_DNA) [N24-07 core] | binds

molecular target: T1, myoglobin; experiment: aptamer blotting; remark: another data set of the same source

Row | Binder | binding result
19 | TTTTTTTTTTTTTTTTT (ssDNA) [T17] | binds
